# Experimental data published in publication PMC9351184, “Survey of the binding preferences of RNA-binding proteins to RNA editing events”.
# T1: ILF3 dsRBD (Homo sapiens, UniProt Q12906 398-590)
# T1 sequence: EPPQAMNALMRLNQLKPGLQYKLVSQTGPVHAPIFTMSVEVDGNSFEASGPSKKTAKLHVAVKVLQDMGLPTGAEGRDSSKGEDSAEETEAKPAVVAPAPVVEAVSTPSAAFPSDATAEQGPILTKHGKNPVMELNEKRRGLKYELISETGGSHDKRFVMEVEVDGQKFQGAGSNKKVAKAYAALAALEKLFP
# What was measured:
# hnRNPC dsRBD = hnRNPC dsRBD (Homo sapiens, UniProt P07910 16-57); assay: EMSA; 1 uM labelled RNA, 3 uM protein, 10 ul, on ice 45 min; 6% PAGE in 0.5x TBE (gel pre-run at 4 C); binding buffer, salt and pH not stated (proteins dialyzed in 25 mM Tris-HCl pH 8.0, 150 mM NaCl; final elution from cation exchange/heparin up to 1 M NaCl, then SEC); conditions: protein: recombinant; tags: 10xHis (pSUMOH10), removed with TEV; label: 5' DY781
# ILF3 dsRBD = molecular target: T1, ILF3 dsRBD; assay: as above; conditions: protein: recombinant; tags: N-terminal GST (pGood6p), removed with TEV; label: 5' DY781
# Sequence of hnRNPC dsRBD (P07910 16-57): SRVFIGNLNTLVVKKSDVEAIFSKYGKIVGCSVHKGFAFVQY
binder,measurement,setting,value
"AGUGGCUUAUGCCUGUGAUCCCAACAC (ssRNA, A-to-I editing site represented by G as printed (A/G); inosine not stated) [edited RNA]",binding result,hnRNPC dsRBD,binds
same,binding result,ILF3 dsRBD,binds
